Source: article PMC12322040 (Nature Communications, 2025)

T1: GST-GCK WT (human, UniProt P35557 1-465)
T1 sequence (looked up): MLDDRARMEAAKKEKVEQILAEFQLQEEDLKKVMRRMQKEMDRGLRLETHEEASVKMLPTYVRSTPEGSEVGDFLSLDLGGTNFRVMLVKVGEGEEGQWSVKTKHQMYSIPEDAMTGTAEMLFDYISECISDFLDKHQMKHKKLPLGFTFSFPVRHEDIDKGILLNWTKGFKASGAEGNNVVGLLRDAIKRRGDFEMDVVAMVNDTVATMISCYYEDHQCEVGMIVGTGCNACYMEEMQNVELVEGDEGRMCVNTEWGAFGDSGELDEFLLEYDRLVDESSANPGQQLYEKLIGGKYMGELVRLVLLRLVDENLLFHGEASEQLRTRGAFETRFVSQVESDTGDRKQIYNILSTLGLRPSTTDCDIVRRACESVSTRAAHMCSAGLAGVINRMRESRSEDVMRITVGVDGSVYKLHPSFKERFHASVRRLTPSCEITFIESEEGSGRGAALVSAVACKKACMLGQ

T2: His-GCK WT (human, UniProt P35557 1-465)
T2 sequence (looked up): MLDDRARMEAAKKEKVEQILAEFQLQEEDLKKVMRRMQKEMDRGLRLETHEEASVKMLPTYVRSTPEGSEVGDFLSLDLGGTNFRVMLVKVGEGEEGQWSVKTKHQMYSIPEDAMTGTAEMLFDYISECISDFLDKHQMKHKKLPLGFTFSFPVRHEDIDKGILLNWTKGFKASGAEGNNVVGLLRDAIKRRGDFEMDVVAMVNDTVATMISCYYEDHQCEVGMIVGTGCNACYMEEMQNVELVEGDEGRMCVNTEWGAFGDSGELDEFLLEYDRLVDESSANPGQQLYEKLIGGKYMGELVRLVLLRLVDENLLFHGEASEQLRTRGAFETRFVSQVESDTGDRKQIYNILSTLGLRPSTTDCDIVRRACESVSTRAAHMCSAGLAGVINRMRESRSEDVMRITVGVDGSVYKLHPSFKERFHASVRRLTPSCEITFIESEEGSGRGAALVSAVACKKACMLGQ


Legend:
GST-GCK WT = molecular target: T1, GST-GCK WT; experiment: pull-down
His-GCK WT = molecular target: T2, His-GCK WT; experiment: pull-down

| Binder | binding result (GST-GCK WT) | binding result (His-GCK WT) |
| --- | --- | --- |
| His-CK2α (enzyme, human, UniProt P68400 1-391, looked up) MSGPVPSRARVYTDVNTHRPREYWDYESHVVEWGNQDDYQLVRKLGRGKYSEVFEAINITNNEKVVVKILKPVKKKKIKREIKILENLRGGPNIITLADIVKDPVSRTPALVFEHVNNTDFKQLYQTLTDYDIRFYMYEILKALDYCHSMGIMHRDVKPHNVMIDHEHRKLRLIDWGLAEFYHPGQEYNVRVASRYFKGPELLVDYQMYDYSLDMWSLGCMLASMIFRKEPFFHGHDNYDQLVRIAKVLGTEDLYDYIDKYNIELDPRFNDILGRHSRKRWERFVHSENQHLVSPEALDFLDKLLRYDHQSRLTAREAMEHPYFYTVVKDQARMGSSSMPGGSTPVSSANMMSGISSVPTPSPLGPLAGSPVIAAANPLGMPVPAAAGAQQ | binds |  |
| GST-CK2α WT phosphorylated by active His-ERK2 (enzyme, human, UniProt P68400 1-391, looked up, phosphothreonine at 360, phosphoserine at 362 (ERK-mediated)) MSGPVPSRARVYTDVNTHRPREYWDYESHVVEWGNQDDYQLVRKLGRGKYSEVFEAINITNNEKVVVKILKPVKKKKIKREIKILENLRGGPNIITLADIVKDPVSRTPALVFEHVNNTDFKQLYQTLTDYDIRFYMYEILKALDYCHSMGIMHRDVKPHNVMIDHEHRKLRLIDWGLAEFYHPGQEYNVRVASRYFKGPELLVDYQMYDYSLDMWSLGCMLASMIFRKEPFFHGHDNYDQLVRIAKVLGTEDLYDYIDKYNIELDPRFNDILGRHSRKRWERFVHSENQHLVSPEALDFLDKLLRYDHQSRLTAREAMEHPYFYTVVKDQARMGSSSMPGGSTPVSSANMMSGISSVPTPSPLGPLAGSPVIAAANPLGMPVPAAAGAQQ |  | binds |
